Experimental data taken from patent publication US20090281024A1 (RAPTOR PHARMACEUTICALS, published 2009).

Key:
[1] = biological target: T1, LRP1 CR3-5 (human); assay: solid-phase assay, coated CR protein
T1 construct: range 852-973; also called L1 CR3-5; LRP1 CR3-S [sic]
Protocol: (§1) Wells were washed with TBSTC and bound ligands detected with polyclonal anti-RAP (BP41/42, 1:1,000, BioMarin). Excess primary antibody was removed and wells washed before incubation with the secondary antibody, HRP-conjugated goat anti rabbit IgG (Bio-Rad). After washing, TMB substrate solutions (Bio-Rad) were added to detect HRP. Color development was stopped with 1N HCl. Absorption at 450 nm was measured with a microplate spectrophotometer (Molecular Devices). Data were plotted and Kd values derived by non-linear regression with the assumption of single-site binding (GraphPad Prism).
Next, the binding of RAP d3 and MegaRAP1 d3 proteins to LRP1 CR3-5 and LRP2 CR89 was assessed. […] In all cases, 10 mM EGTA prevented binding of both RAP d3 and MegaRAP1 d3 to CR proteins. Since calcium was the only divalent metal ion present in the binding buffer, this observation is consistent with both RAP d3 and MegaRAP1 d3 binding to calcium-loaded CR pairs. […] Therefore, wild-type RAP d3 and MegaRAP1 d3 have inverted binding preferences for these two receptor fragments.

[2] = biological target: T1, LRP1 CR3-5; assay: solid-phase assay, coated CR protein (FIG. 4)
Protocol: Solid phase binding assays—Purified, refolded CR protein (1 μg) was bound to Nunc Maxisorp™ 96-well plates in TBS pH 8 supplemented with 5 mM CaCl₂ (TBSC) overnight at 4° C. Wells were washed with TBSC and then blocked with TBSC containing 2% bovine serum albumin (BSA). RAP ligands were then incubated with the immobilized receptor at a range of concentrations for 2 hours in the above blocking buffer supplemented with 0.05% Tween-20 at room temperature. Control wells contained no added ligand. As an additional control, to determine whether the absence of calcium affected binding, 10 mM EGTA was included in the incubation medium for some samples. Wells were washed with TBSTC and bound ligands detected with polyclonal anti-RAP (BP41/42, 1:1,000, BioMarin). Excess primary antibody was removed and wells washed before incubation with the secondary antibody, HRP-conjugated goat anti rabbit IgG (Bio-Rad). After washing, TMB substrate solutions (Bio-Rad) were added to detect HRP. Color development was stopped with 1N HCl. Absorption at 450 nm was measured with a microplate spectrophotometer (Molecular Devices). […]
The binding of wild-type RAP d3 to each CR pair or set of overlapping pairs was then measured by solid-phase assay (FIG. 4). […] Binding of RAP d3 to MAT CR12 and CR34, measured in a separate set of experiments, was also undetectable. […]

[3] = biological target: T2, LRP2 CR89 V1047D R1088D (human, UniProt P98164 1022-1105); assay: solid-phase assay, coated CR protein
T2 construct: also called YDWD; not shown: N-terminal hexahistidine and S-peptide tag stretch of pET30(+)a
T2 chain: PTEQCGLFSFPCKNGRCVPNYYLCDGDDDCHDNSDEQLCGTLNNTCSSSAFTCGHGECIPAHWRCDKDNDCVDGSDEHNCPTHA
Protocol: as §1
(§2) One premise of this work was that amino acids at A, C, A′ and C′ within the calcium-binding loops of a CR pair were key determinants of binding affinity for RAP and would be similarly important for binding of RAP variants. To test this idea, mutant LRP2 CR89 were prepared in which the native, non-canonical residues at these positions were sequentially substituted with the non-native, canonical residues. As defined above, the A, C, A′, C′ string for LRP2 CR89 is YVWR. Mutants included LRP2 CR89Y1042W (WVWR), LRP2 CR89V1047D (YDWR), LRP2 CR89R1088D (YVWD), LRP2 CR89V1047D R1088D (YDWD), LRP2 CR89 Y1042W V1047D R1088D (WDWD), LRP2 CR89Y1042W V1047D (WDWR), LRP2 CR89Y1042W R1088D (WVWD). Binding to both RAP d3 and MegaRAP1 d3 were measured for each LRP2 CR89 mutant by solid-phase assay. […] The A′ position in LRP2 CR89 is a tryptophan, the canonical residue for wild-type RAP d3 binding, and was not mutated in our studies. […] We did see a small increase in binding of RAP d3 to the WVWD and WDWD combinations at A, C, A′ and C′.

[4] = biological target: T3, LRP2 CR89 Y1042W R1088D (human, UniProt P98164 1022-1105); assay: solid-phase assay, coated CR protein
T3 construct: also called WVWD; not shown: N-terminal hexahistidine and S-peptide tag stretch of pET30(+)a
T3 chain: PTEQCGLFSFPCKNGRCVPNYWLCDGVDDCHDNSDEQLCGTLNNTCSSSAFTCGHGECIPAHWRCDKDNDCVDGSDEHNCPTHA
Protocol: as §1, §2

[5] = biological target: T4, LRP2 CR89 V1047D (human, UniProt P98164 1022-1105); assay: solid-phase assay, coated CR protein
T4 construct: also called YDWR; not shown: N-terminal hexahistidine and S-peptide tag stretch of pET30(+)a
T4 chain: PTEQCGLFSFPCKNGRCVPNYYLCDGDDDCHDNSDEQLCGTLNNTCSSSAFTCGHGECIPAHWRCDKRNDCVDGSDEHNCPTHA
Protocol: as §1, §2

[6] = biological target: T1, LRP1 CR3-5; assay: solid-phase assay, coated CR protein (same value as Table 1)
[7] = biological target: T5, GFRα-1; assay: solid phase assay, RAP-GDNF concentration varied, OD 450 nm
T5 construct: Bought reagent; construct not described; also called soluble GFRα-1

[8] = biological target: T5, GFRα-1; assay: solid-phase assay, coated RAP-GDNF, serial dilutions of GFRα-1 (FIG. 12)
Protocol: Solid-phase binding assays—Microtiter plates were coated with GDNF or RAP-GDNF in 50 mM sodium carbonate, pH 9.6. The plates were then blocked for 1 hour at room temperature with blocking buffer (Promega) and incubated with serial dilutions of GFRα-1 (0-10 nM) in the presence or the absence of 1 μM RET (2 hours, ambient temperature). Complexes were identified by probing with an anti-GDNF monoclonal antibody (B8, Santa Cruz Biotechriology) and then with anti-mouse […] (Bio-Rad). After adding TMB solution (Bio-Rad), the color development was stopped with HCl and the OD 450 nm was measured using a plate reader. Between steps, the plates were washed three times with DPBS containing 0.1% Tween 20. This method provides a method for quantitating the affinity of RAP-GDNF for GFRα.

T1 sequence (Q07954 852-973): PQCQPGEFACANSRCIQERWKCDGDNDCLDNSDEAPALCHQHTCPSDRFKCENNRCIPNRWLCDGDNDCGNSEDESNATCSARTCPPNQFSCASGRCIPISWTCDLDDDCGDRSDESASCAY

B1: RAP d3 (wild-type third domain of the receptor-associated protein) (ligand, human, UniProt P30533 235-353, looked up)
chain: LDRLRRVSHQGYSTEAEFEEPRVIDLWDLAQSANLTDKELEAFREELKHFEAKIEKHNHYQKQLEIAHEKLRHAESVGDGERVSRSREKHALLEGRTKELGYTVKKHLQDLSGRISRAR
notes: range 201-319 (mature RAP numbering); Expressed in E. coli from pET30(+)a; also called wild-type RAP d3; not shown: N-terminal hexahistidine and S-peptide tags of pET30(+)a
- % max binding [1]: 76%
- Kd [1]: 16 nM
- Kd [2]: 11 nM
- % max bind [3]: 6%
- % max bind [4]: 16%
- % max bind [5]: 6%
- Kd [6]: 16 nM

B2: RAP-GDNF fusion protein (ligand, UniProt P30533 35-353, looked up)
chain: YSREKNQPKPSPKRESGEEFRMEKLNQLWEKAQRLHLPPVRLAELHADLKIQERDELAWKKLKLDGLDEDGEKEARLIRNLNVILAKYGLDGKKDARQVTSNSLSGTQEDGLDDPRLEKLWHKAKTSGKFSGEELDKLWREFLHHKEKVHEYNVLLETLSRTEEIHENVISPSDLSDIKGSVLHSRHTELKEKLRSINQGLDRLRRVSHQGYSTEAEFEEPRVIDLWDLAQSANLTDKELEAFREELKHFEAKIEKHNHYQKQLEIAHEKLRHAESVGDGERVSRSREKHALLEGRTKELGYTVKKHLQDLSGRISRARSPDKQMAVLPRRERNRQAAAANPENSRGKGRRGQRGKNRGCVLTAIHLNVTDLGLGYETKEELIFRYCSGSCDAAETTYDKILKNLSRNRRLVSDKVGQACCRPIAFDDDLSFLDDNLVYHILRKHSAKRCGCI
notes: Secreted from CHO cells as a disulfide-linked homodimer of about 120 kD
- EC50 (read off the curve) [7]: ~2 ng/mL
- Kd [8]: ~5 ng/mL
